Data published in article PMC10978878.

Key:
[1] = molecular target: BA.2.12.1 spike, recombinant trimer that retains the native sequence (SARS-CoV-2) (UniProt P0DTC2); assay: cryo-EM structure
[2] = molecular target: BA.4 spike, recombinant trimeric S-twin-Strep, prefusion stabilized (SARS-CoV-2) (UniProt P0DTC2); assay: cryo-EM structure

Substance | stoichiometry N (chains per oligomer) [1] | stoichiometry N (chains per oligomer) [2]
BA.2.12.1 spike, recombinant trimer that retains the native sequence (from UniProt P0DTC2) (natural protein) | 3 | –
BA.4 spike, recombinant trimeric S-twin-Strep, prefusion stabilized (from UniProt P0DTC2 28-1147) (natural protein) | – | 3
